Earlier results on one substance are cited in paper PMC7140434.

The target of the series is emerin (Homo sapiens) (UniProt P50402).
Chain of UniProt P50402 (P50402 whole entry): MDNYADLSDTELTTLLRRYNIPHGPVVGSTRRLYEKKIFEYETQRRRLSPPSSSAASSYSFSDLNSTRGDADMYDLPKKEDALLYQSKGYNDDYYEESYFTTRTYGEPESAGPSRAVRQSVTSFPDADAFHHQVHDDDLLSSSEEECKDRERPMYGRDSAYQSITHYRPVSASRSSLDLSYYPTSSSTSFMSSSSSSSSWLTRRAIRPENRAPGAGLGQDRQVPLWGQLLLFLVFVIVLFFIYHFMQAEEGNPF

Regarding HDAC3 (from UniProt O15379), the Kd was 7.3 µM.
